*1 amine or outer side, *2 acyl side, *3 side chain or, on linkers, in order; H or OH if unused. Where no end group is shown, it is not given here. [ ]: non-standard residue; d: D form. Sac = acetylated serine, O-acetyl-L-serine, CC(=O)OC[C@H](N[*:1])C(=O)[*:2]
T1: human COX2 (cyclooxygenase 2) protein with acetylated S565 residue (human, UniProt P35354 18-604, acetylated serine at S565)
T1 construct: Endogenous protein in RIPA lysates of human microglia and human PBMCs, and in human brain tissue sections; also called S565 acetylated COX2 protein; acetylated COX2 protein
T1 sequence: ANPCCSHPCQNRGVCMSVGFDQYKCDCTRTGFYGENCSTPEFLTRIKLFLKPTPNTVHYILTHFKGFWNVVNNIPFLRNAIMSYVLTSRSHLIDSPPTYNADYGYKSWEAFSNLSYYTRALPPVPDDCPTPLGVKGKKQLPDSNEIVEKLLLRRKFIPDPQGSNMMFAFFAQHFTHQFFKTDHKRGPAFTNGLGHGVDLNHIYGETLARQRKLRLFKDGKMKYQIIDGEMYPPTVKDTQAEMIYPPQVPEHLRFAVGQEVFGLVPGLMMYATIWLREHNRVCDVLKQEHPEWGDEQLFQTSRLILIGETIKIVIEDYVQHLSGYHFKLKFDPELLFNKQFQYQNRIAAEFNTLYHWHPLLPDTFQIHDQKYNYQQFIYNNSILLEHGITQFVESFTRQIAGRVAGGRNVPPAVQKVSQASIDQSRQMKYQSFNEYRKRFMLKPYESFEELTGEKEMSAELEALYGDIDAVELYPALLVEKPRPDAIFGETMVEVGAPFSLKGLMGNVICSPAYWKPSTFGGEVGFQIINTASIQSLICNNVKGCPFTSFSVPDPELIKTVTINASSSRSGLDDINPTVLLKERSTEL

T2: acetylated peptide PFTSacFSVPDPELI (SEQ ID NO: 3) including acetylated S565 residue of COX2 (human)
T2 peptide: PFT[Sac]FSVPDPELI

T3: acetylated peptide GCPFTSacFSVPD (SEQ ID NO: 4) including acetylated S565 residue of COX2 (human)
T3 peptide: GCPFT[Sac]FSVPD


How the values were obtained:
[1] = biological target: T1, human COX2 (cyclooxygenase 2) protein …; experiment: sandwich ELISA on human microglia lysates, plate coated with 9F7-2
[2] = biological target: T2, acetylated peptide PFTSacFSVPDPELI (SEQ …); experiment: ELISA, 96-well plate coated with 9F7-2, peptide captured, biotinylated COX2 antibody detection
[3] = biological target: T1, human COX2 (cyclooxygenase 2) protein …; experiment: sandwich ELISA on human PBMC lysates, plate coated with 44C7C8
Description: The sample preparation was performed according to the following procedure. After collecting mouse and human blood, the blood was transferred to a heparin tube and reacted for 30 minutes. The reacted blood was placed on the same amount of Histopaque (sigma, 10771) and centrifuged (400 g, 30 minutes). After centrifugation, a middle PBMC layer was separated and washed. After washing, the PBMCs were lysed by adding an RIPA solution (Cell signaling, 9806S), and then the cell lysate was centrifuged (13,000×g, 10 minutes) to obtain a supernatant, and then the amount of protein was quantified and ELISA assay was performed using 100 μg/ml of protein.
After the plate was washed with PBS/Tween, 300 μl/well of a blocking solution was applied at RT for 1 hour. 50 μl of a PBMC sample (100 μg/ml) was treated and incubated at RT for 2 hours. […] After the final washing, the detection was performed with TMB (3-3′,5,5′-tetramethylbenzidine) ([…] substrate for HRP) and the plate was read at 405 nm using an ELISA plate reader. A standard curve was obtained by step-diluting the peptide (500 μg/ml) of SEQ ID NO: 3 or SEQ ID NO: 4, and the amount of COX2 protein acetylated in S565 residue was calculated by substituting an optical density (O.D.) value obtained from the sample to the Standard curve.

[4] = biological target: T3, acetylated peptide GCPFTSacFSVPD (SEQ …); experiment: ELISA, plate coated with antibody, peptide captured, biotinylated COX2 antibody detection

binding result [1] | binding result [2] | binding result [3] | binding result [4] | Binder
binds | binds |  |  | monoclonal antibody 9F7-2 (antibody, V domains shown, Clones were screened for IgG expression; the isotype and constant regions are not) VH: QVQLQQSGAELVRPGTSVKISCKASGYTFTDYLLGWVKQRPGHGLEWIGDIYPGGTYIKYNEKFKGKATLTADTSSSTAYMQLSSLTSEDSAVYFCARGRNDEKGDYWGQGTSVTVSS VL: DVLMTQTPLSLPVSLGDQASISCRSSQSIVHRNGFTYLEWYLQKPGQSPKLLIYQVSNRFSGVPDRFSGSGSGTDFTLKISRVEAEDLGVYYCFQGSHVPPTFGGGTKLEIK
 |  | binds | binds | monoclonal antibody 44C7C8 (antibody, V domains shown, the isotype and constant regions are not; The methods call it 44C7F5 or 44C75F and the results call it 44C7C8; also called 44C7F5; 44C75F) VH: DVQLQESGPGLVKPSQSLSLTCSVTGYSITSGYYWNWIRQFPGNKLEWMGYISYDGSNNYNPSLKNRISITRDTYKKQFFLKLNSVTTEDTATYYCARGADYYGNTYFYFDVWGAGTTVTVSS VL: DIVMSQSPSSLAVSVEEKVNMSCKSSQSLLYSRNQKNYLAWYQQKPGQSPKLLIYWASTRESGVPDRFTGSGAGTDFTLTISSVKAEDLAVYYCQQYYTYPFTFGSGTKLEIK
